Biological target: full-length MukB (wild type) (E. coli) (UniProt P22523)
Assay: fluorescence correlation spectroscopy (FCS); competition: MatP-Cy3B fixed at 1 nM, MukB at 400 nM; ParC variants at 10-fold, unlabeled MatP at 50-fold, DNA at 2.5-fold molar excess

Chain of MBP-ParC^CTD (ParC C-terminal domain with N-terminal MBP fusion) (domain or fragment) (P0AFI2 whole entry, the tested form may be a part): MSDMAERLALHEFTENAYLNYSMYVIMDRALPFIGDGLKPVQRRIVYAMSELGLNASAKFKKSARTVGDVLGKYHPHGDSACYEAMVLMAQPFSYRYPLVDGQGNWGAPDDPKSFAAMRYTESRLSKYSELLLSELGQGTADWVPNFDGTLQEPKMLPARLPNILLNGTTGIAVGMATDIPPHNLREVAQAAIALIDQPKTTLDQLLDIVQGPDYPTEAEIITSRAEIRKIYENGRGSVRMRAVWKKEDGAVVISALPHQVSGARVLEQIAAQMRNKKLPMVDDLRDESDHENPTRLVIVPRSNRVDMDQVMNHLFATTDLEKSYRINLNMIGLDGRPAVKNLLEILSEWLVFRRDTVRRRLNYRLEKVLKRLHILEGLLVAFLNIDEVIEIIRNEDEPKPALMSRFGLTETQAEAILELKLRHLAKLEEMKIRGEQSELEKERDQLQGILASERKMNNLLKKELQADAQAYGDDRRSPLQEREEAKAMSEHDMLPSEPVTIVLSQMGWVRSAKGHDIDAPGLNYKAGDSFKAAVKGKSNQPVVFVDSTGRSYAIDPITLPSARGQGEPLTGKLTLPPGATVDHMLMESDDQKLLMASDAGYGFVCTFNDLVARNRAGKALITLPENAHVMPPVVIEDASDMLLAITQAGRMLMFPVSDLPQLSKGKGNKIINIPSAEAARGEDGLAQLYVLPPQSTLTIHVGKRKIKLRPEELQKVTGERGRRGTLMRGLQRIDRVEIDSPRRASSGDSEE
Chain of full-length MukB (wild type) (E. coli) (P22523 whole entry): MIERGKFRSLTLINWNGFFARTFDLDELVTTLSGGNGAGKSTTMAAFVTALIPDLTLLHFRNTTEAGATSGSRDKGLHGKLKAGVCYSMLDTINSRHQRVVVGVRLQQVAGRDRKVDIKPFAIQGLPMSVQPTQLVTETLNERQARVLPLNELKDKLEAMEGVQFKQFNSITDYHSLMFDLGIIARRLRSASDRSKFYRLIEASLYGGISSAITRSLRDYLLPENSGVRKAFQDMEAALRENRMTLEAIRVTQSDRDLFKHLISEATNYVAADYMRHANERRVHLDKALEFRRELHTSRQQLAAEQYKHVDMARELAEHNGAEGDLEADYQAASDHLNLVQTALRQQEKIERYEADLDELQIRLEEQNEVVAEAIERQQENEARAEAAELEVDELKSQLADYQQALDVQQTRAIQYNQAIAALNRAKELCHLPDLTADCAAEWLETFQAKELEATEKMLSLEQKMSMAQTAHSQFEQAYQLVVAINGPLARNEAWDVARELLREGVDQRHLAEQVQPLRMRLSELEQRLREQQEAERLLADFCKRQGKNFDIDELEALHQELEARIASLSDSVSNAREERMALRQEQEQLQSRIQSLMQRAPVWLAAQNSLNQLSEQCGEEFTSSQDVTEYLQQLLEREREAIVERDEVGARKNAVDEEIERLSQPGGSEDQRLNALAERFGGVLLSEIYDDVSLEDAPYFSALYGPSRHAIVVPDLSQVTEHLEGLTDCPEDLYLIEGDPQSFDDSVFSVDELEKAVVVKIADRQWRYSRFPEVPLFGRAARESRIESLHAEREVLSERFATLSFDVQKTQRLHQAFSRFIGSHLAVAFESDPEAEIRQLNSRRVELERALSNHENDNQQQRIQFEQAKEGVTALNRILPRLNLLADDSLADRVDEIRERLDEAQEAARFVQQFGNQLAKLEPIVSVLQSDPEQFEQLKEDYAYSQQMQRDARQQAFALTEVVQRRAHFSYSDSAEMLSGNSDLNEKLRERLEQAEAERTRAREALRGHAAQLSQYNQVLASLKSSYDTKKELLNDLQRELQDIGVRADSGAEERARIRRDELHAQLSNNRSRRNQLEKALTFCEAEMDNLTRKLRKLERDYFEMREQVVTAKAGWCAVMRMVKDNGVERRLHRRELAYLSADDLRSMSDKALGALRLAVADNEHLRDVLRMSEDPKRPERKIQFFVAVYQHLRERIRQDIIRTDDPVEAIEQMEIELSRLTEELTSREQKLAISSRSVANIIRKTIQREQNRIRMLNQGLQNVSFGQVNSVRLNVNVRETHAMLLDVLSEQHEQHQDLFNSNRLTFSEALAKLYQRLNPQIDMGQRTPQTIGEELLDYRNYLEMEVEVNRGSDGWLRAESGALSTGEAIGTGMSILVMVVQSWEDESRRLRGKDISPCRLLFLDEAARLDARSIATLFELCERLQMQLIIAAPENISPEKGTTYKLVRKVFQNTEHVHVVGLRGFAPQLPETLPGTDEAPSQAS

MBP-ParC^CTD (ParC C-terminal domain with N-terminal MBP fusion) (domain or fragment)
fold decrease in MatP-Cy3B binding to MukB at 10-fold excess of competitor: 3 fold

From article PMC8523169
